Data taken from publication PMC11150392, “Structure and mechanism of the K^+/H^+ exchanger KefC” (Nature Communications, 2024).

B1: KefC WT*-GFP fusion [Escherichia coli] / itself (parent)
chain: MDSHTLIQALIYLGSAALIVPIAVRLGLGSVLGYLIAGCIIGPWGLRLVTDAESILHFAEIGVVLMLFIIGLELDPQRLWKLRAAVFGCGALQMVICGGLLGLFCMLLGLRWQVAELIGMTLALSSTAIAMQAMNERNLMVTQMGRSAFAVLLFQDIAAIPLVAMIPLLATSSASTTMGAFALSALKVAGALVLVVLLGRYVTRPALRFVARSGLREVFSAVALFLVFGFGLLLEEVGLSMAMGAFLAGVLLASSEYRHALESDIEPFKGLLLGLFFIGVGMSIDFGTLLENPLRIVILLLGFLIIKIAMLWLIARPLQVPNKQRRWFAVLLGQGSEFAFVVFGAAQMANVLEPEWAKSLTLAVALSMAATPILLVILNRLEQSSTEEAREADEIDEEQPRVIIAGFGRFGQITGRLLLSSGVKMVVLDHDPDHIETLRKFGMKVFYGDATRMDLLESAGAAKAEVLINAIDDPQTNLQLTEMVKEHFPHLQIIARARDVDHYIRLRQAGVEKPERETFEGALKTGRLALESLGLGPYEARERADVFRRFNIQMVEEMAM

Variants of: B1
Assay: FSEC of DDM solubilized membranes after heating
Design: unit not given here
Conditions: with itself; 10 mins at 60 °C; 1 mM AMP; read off a plot

Going from MDSHTLIQALIYLGSAALIVPIAVRLGLGSVLGYLIAGCIIGPWGLRLVTDAESILHFAEIGVVLMLFIIGLELDPQRLWKLRAAVFGCGALQMVICGGLLGLFCMLLGLRWQVAELIGMTLALSSTAIAMQAMNERNLMVTQMGASAFAVLLFQDIAAIPLVAMIPLLATSSASTTMGAFALSALKVAGALVLVVLLGRYVTRPALRFVARSGLREVFSAVALFLVFGFGLLLEEVGLSMAMGAFLAGVLLASSEYRHALESDIEPFKGLLLGLFFIGVGMSIDFGTLLENPLRIVILLLGFLIIKIAMLWLIARPLQVPNKQRRWFAVLLGQGSEFAFVVFGAAQMANVLEPEWAKSLTLAVALSMAATPILLVILNRLEQSSTEEAREADEIDEEQPRVIIAGFGRFGQITGRLLLSSGVKMVVLDHDPDHIETLRKFGMKVFYGDATRMDLLESAGAAKAEVLINAIDDPQTNLQLTEMVKEHFPHLQIIARARDVDHYIRLRQAGVEKPERETFEGALKTGRLALESLGLGPYEARERADVFRRFNIQMVEEMAM [chain 1 R146A] to MDSHTLIQALIYLGSAALIVPIAVRLGLGSVLGYLIAGCIIGPWGLRLVTDAESILHFAEIGVVLMLFIIGLELDPQRLWKLRAAVFGCGALQMVICGGLLGLFCMLLGLRWQVAELIGMTLALSSTAIAMQAMNERNLMVTQMGRSAFAVLLFQDIAAIPLVAMIPLLATSSASTTMGAFALSALKVAGALVLVVLLGRYVTRPALRFVARSGLREVFSAVALFLVFGFGLLLEEVGLSMAMGAFLAGVLLASSEYRHALESDIEPFKGLLLGLFFIGVGMSIDFGTLLENPLRIVILLLGFLIIKIAMLWLIARPLQVPNKQRRWFAVLLGQGSEFAFVVFGAAQMANVLEPEWAKSLTLAVALSMAATPILLVILNRLEQSSTEEAREADEIDEEQPRVIIAGFGRFGQITGRLLLSSGVKMVVLDHDPDHIETLRKFGMKVFYGDATRMDLLESAGAAKAAVLINAIDDPQTNLQLTEMVKEHFPHLQIIARARDVDHYIRLRQAGVEKPERETFEGALKTGRLALESLGLGPYEARERADVFRRFNIQMVEEMAM [chain 1 E465A], the screen value falls from 86 to 5.5.

Compared with MDSHTLIQALIYLGSAALIVPIAVRLGLGSVLGYLIAGCIIGPWGLRLVTDAESILHFAEIGVVLMLFIIGLELDPQRLWKLRAAVFGCGALQMVICGGLLGLFCMLLGLRWQVAELIGMTLALSSTAIAMQAMNERNLMVTQMGRSAFAVLLFQDIAAIPLVAMIPLLATSSASTTMGAFALSALKVAGALVLVVLLGRYVTRPALRFVARSGLREVFSAVALFLVFGFGLLLEEVGLSMAMGAFLAGVLLASSEYRHALESDIEPFKGLLLGLFFIGVGMSIDFGTLLENPLRIVILLLGFLIIKIAMLWLIARPLQVPNKQRRWFAVLLGQGSEFAFVVFGAAQMANVLEPEWAKSLTLAVALSMAATPILLVILNRLEQSSTEEAREADEIDEEQPAVIIAGFGRFGQITGRLLLSSGVKMVVLDHDPDHIETLRKFGMKVFYGDATRMDLLESAGAAKAEVLINAIDDPQTNLQLTEMVKEHFPHLQIIARARDVDHYIRLRQAGVEKPERETFEGALKTGRLALESLGLGPYEARERADVFRRFNIQMVEEMAM [chain 1 R401A], MDSHTLIQALIYLGSAALIVPIAVRLGLGSVLGYLIAGCIIGPWGLRLVTDAESILHFAEIGVVLMLFIIGLELDPQRLWKLRAAVFGCGALQMVICGGLLGLFCMLLGLRWQVAELIGMTLALSSTAIAMQAMAERNLMVTQMGRSAFAVLLFQDIAAIPLVAMIPLLATSSASTTMGAFALSALKVAGALVLVVLLGRYVTRPALRFVARSGLREVFSAVALFLVFGFGLLLEEVGLSMAMGAFLAGVLLASSEYRHALESDIEPFKGLLLGLFFIGVGMSIDFGTLLENPLRIVILLLGFLIIKIAMLWLIARPLQVPNKQRRWFAVLLGQGSEFAFVVFGAAQMANVLEPEWAKSLTLAVALSMAATPILLVILNRLEQSSTEEAREADEIDEEQPRVIIAGFGRFGQITGRLLLSSGVKMVVLDHDPDHIETLRKFGMKVFYGDATRMDLLESAGAAKAEVLINAIDDPQTNLQLTEMVKEHFPHLQIIARARDVDHYIRLRQAGVEKPERETFEGALKTGRLALESLGLGPYEARERADVFRRFNIQMVEEMAM [chain 1 N135A] is higher in screen value: 74 for the first, 89 for the second.

Going from MDSHTLIQALIYLGSAALIVPIAVRLGLGSVLGYLIAGCIIGPWGLRLVTDAESILHFAEIGVVLMLFIIGLELDPQRLWALRAAVFGCGALQMVICGGLLGLFCMLLGLRWQVAELIGMTLALSSTAIAMQAMNERNLMVTQMGRSAFAVLLFQDIAAIPLVAMIPLLATSSASTTMGAFALSALKVAGALVLVVLLGRYVTRPALRFVARSGLREVFSAVALFLVFGFGLLLEEVGLSMAMGAFLAGVLLASSEYRHALESDIEPFKGLLLGLFFIGVGMSIDFGTLLENPLRIVILLLGFLIIKIAMLWLIARPLQVPNKQRRWFAVLLGQGSEFAFVVFGAAQMANVLEPEWAKSLTLAVALSMAATPILLVILNRLEQSSTEEAREADEIDEEQPRVIIAGFGRFGQITGRLLLSSGVKMVVLDHDPDHIETLRKFGMKVFYGDATRMDLLESAGAAKAEVLINAIDDPQTNLQLTEMVKEHFPHLQIIARARDVDHYIRLRQAGVEKPERETFEGALKTGRLALESLGLGPYEARERADVFRRFNIQMVEEMAM [chain 1 K81A] to MDSHTLIQALIYLGSAALIVPIAVRLGLGSVLGYLIAGCIIGPWGLRLVTDAESILHFAEIGVVLMLFIIGLELDPQRLWKLRAAVFGCGALQMVICGGLLGLFCMLLGLRWQVAELIGMTLALSSTAIAMQAMNERNLMVTQMGRSAFAVLLFQDIAAIPLVAMIPLLATSSASTTMGAFALSALKVAGALVLVVLLGRYVTRPALRFVARSGLREVFSAVALFLVFGFGLLLEEVGLSMAMGAFLAGVLLASSEYRAALESDIEPFKGLLLGLFFIGVGMSIDFGTLLENPLRIVILLLGFLIIKIAMLWLIARPLQVPNKQRRWFAVLLGQGSEFAFVVFGAAQMANVLEPEWAKSLTLAVALSMAATPILLVILNRLEQSSTEEAREADEIDEEQPRVIIAGFGRFGQITGRLLLSSGVKMVVLDHDPDHIETLRKFGMKVFYGDATRMDLLESAGAAKAEVLINAIDDPQTNLQLTEMVKEHFPHLQIIARARDVDHYIRLRQAGVEKPERETFEGALKTGRLALESLGLGPYEARERADVFRRFNIQMVEEMAM [chain 1 H259A], the screen value falls from 10 to 6.5.

MDSHTLIQALIYLGSAALIVPIAVRLGLGSVLGYLIAGCIIGPWGLRLVTDAESILHFAEIGVVLMLFIIGLELDPQRLWKLRAAVFGCGALQMVICGGLLGLFCMLLGLRWQVAELIGMTLALSSTAIAMQAMNERNLMVTQMGRSAFAVLLFQDIAAIPLVAMIPLLATSSASTTMGAFALSALKVAGALVLVVLLGRYVTRPALRFVARSGLREVFSAVALFLVFGFGLLLEEVGLSMAMGAFLAGVLLASSEYRHALESDIEPFKGLLLGLFFIGVGMSIDFGTLLENPLRIVILLLGFLIIKIAMLWLIARPLQVPNKQRRWFAVLLGQGSEFAFVVFGAAQMANVLEPEWAKSLTLAVALSMAATPILLVILNRLEQSSTEEAREADEIDEEQPRVIIAGFGRFGQITGRLLLSSGVKMVVLDHDPDHIETLRKFGMKVFYGDATRMDLLESAGAAKAEVLINAIDDPQTNLQLTEMVKEHFPHLQIIARARDVDHYIRLRQAGVEKPERETFEGALKTGRLALESLGLGPYEAREAADVFRRFNIQMVEEMAM [chain 1 R543A] showed a screen value of 2.5.
